# Measured values reported in patent US20170283495A1 (published 2017).
# Where no end group is shown, it is not given here.
# T1: NT-biotin hepcidin-25 (human, NT-biotin (biotin label; NT is not spelled out, taken as the N-terminus))
# T1 construct: also called NT-biotin hepcidin-25 tracer
# T1 peptide: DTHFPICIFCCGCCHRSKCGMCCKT
# T2: K24-biotin hepcidin-25 (human, biotin on K24)
# T2 construct: also called K24-biotin hepcidin-25 tracer
# T2 peptide: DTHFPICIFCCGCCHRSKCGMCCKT
# T3: K18-biotin hepcidin-25 (human, biotin on K18)
# T3 construct: also called K18-Biotin Hepcidin-25 tracer
# T3 peptide: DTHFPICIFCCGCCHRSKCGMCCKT
# T4: mouse hepcidin-1 peptide (mouse)
# T4 construct: also called murine hepcidin-1; mouse hepcidin-25
# T4 peptide: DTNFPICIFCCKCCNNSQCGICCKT
# T5: human hepcidin 10-25 peptide (human, disulfide (positions not given here); also: oxidized and refolded with proper cysteine bonds, pairing not given here)
# T5 construct: also called hep 10-25; hHepcidin 10-25
# T5 peptide: CCGCCHRSKCGMCCKT
# B1: murine anti-hepcidin MAb 583 (antibody, V domains shown)
# VH: QIQLVQSGPELKKPGETVKISCKASGYTFTNYGMNWVKQAPGKGLKWMGWINTYTGEPTYADDFKGRFAFSLETSASTAYLQINNLKNEDTATYFCTTYATSWYWGQGTTLTVSS
# VL: DIVLTQSPASLAVSLGQRATISCRASESVDSYGNSFMHWYQQKPGQPPKLLIYRASNLESGIPARFSGSGSRTDFTLTINPVEADDVATYYCQQSNEDLTFGGGTKLEIK
# notes: Murine IgG from a hybridoma, purified on protein G (Protein A in some legends); detected with anti-mouse IgG1 (H+L); also called 5A3; hybridoma 5A3
# B2: human hepcidin-20 peptide (peptide)
# peptide: ICIFCCGCCHRSKCGMCCKT
# notes: also called hep-20; hHepcidin-20
# Columns and labels:
# NT-biotin hepcidin-25 [1] = biological target: T1, NT-biotin hepcidin-25; assay: Biacore SPR, biotin peptide on neutravidin chip, MAb 583 at 24 µg/ml
# Method: (§1) Biotinylated hepcidin peptides (NT-biotin-hepcidin-25, K18-biotin-hepcidin-25 and K24-biotin-hepcidin-25) were immobilized in flow cells 2-4 (one peptide species per flow cell) by injecting individual peptides at a concentration of 200 μg/ml at a flow rate of 5 μl/min, for 20 min.
# (§2) After 3 minutes, injection was stopped and dissociation was followed for 6 min. Regeneration was performed by injecting 10 mM glycine HCl, pH 1.5 at a flow rate of 10 μl/min for 1 min.
# K24-biotin hepcidin-25 = biological target: T2, K24-biotin hepcidin-25; assay: as above
# Method: as §1, §2
# K18-biotin hepcidin-25 [2] = biological target: T3, K18-biotin hepcidin-25; assay: as above
# Method: as §1, §2
# NT-biotin hepcidin-25 [3] = biological target: T1, NT-biotin hepcidin-25; assay: ELISA, 583 coated at 100 ng/well, tracer 1 ng/well, SA-HRP
# Method: (§3) We used a microwell plate ELISA to assess antibody activity. […] The NT-biotin hepcidin-25 tracer was added across the plate at 1 ng/well in TBST, pH 8) containing 0.25% Blotto. The tracer was allowed to bind for 2 hours and the wells were washed in TBST, pH 8 with no Blotto. SA-HRP was added at 1:2500 for 30 minutes, the wells washed in TBST, and TMB substrate added for 10 minutes. Stop buffer was added the OD quantified on a spectrophotometer at 450 nm. An OD of 4 indicates the absorbance is beyond the analytic range of the spectrophotomer.
# [4] = biological target: B2; assay: Western blot after non-reducing tricine SDS-PAGE
# NT-biotin hepcidin-25 [5] = biological target: T1, NT-biotin hepcidin-25; assay: ELISA, 583 coated at 12.5 ng/well, tracer 1 ng/well, SA-HRP
# Method: as §3
# mouse hepcidin-1 peptide = biological target: T4, mouse hepcidin-1 peptide; assay: competition ELISA, MAb 583 coated, NT-biotin hepcidin-25 tracer
# [6] = biological target: T5, human hepcidin 10-25 peptide; assay: as above
# NT-biotin hepcidin-25 [7] = biological target: T1, NT-biotin hepcidin-25; assay: Biacore SPR, biotin peptide on chip, MAb 583 at 5 µg/ml
# K18-biotin hepcidin-25 [8] = biological target: T3, K18-biotin hepcidin-25; assay: as above
# NT-biotin hepcidin-25 [9] = biological target: T1, NT-biotin hepcidin-25; assay: ELISA, 583 coated at 25 ng/well, tracer 1 ng/well, SA-HRP
# Method: as §3
# NT-biotin hepcidin-25 [10] = biological target: T1, NT-biotin hepcidin-25; assay: ELISA, 583 coated at 50 ng/well, tracer 1 ng/well, SA-HRP
# Method: as §3
# [11] = biological target: B1; assay: C-ELISA, purified MAb 583 coated, hepcidin-25 against NT-biotin hepcidin-25 tracer (FIG. 16)
# Method: FIG. 16. […] The relative binding of the NT-biotin hepcidin-25 tracer (1 ng/well) relative to hepcidin-25, hepcidin-22, and hepcidin-20 was measured by ELISA. Four parameter logistical regression analysis was conducted using GraphPad Prism software to produce the curves shown.
# [12] = biological target: T6, BAP070-01 human-mouse chimeric MAb 583; assay: C-ELISA, BAP070-01 supernatant on Protein G, hepcidin-25 against NT-biotin hepcidin-25 tracer, 4-parameter fit
# T6 construct: tested as unpurified CHO cell supernatant (3650 ng/ml IgG); also called BAP070-01 chimera
# Method: To capture BAP070-01 chimeric antibodies we coated microwell plates with Protein G (150 ng/well) overnight in carbonate coating buffer.
# The plate was washed with TBST and one (1) ng/well of NT-biotin hepcidin-25 was mixed with different amounts (0-100 ng) of synthetic hepcidin-25 standard in TBST, 0.25% BLOTTO and added onto the plate to bind competitively. The plate was washed with TBST and SA-HRP (1:2500) added and allowed to bind for 1 hour.
# The standard curve shown in FIG. 31 was generated using a four parameter logistical regression (Graphpad Prism; San Diego, Calif.).
# [13] = biological target: B1; assay: competition ELISA, MAb 583 coated, NT-biotin hepcidin-25 tracer
binder,measurement,setting,value
B1,Ka,NT-biotin hepcidin-25 [1],1.94e+10 M⁻¹
same,Kd,NT-biotin hepcidin-25 [1],51.6 pM
same,Req,NT-biotin hepcidin-25 [1],78.8 RU
same,kobs,NT-biotin hepcidin-25 [1],0.00977 s⁻¹
same,koff,NT-biotin hepcidin-25 [1],3.15e-06 s⁻¹
same,kon,NT-biotin hepcidin-25 [1],61100 M⁻¹ s⁻¹
same,Ka,K24-biotin hepcidin-25,1.8e+08 M⁻¹
same,Kd,K24-biotin hepcidin-25,5540 pM
same,Req,K24-biotin hepcidin-25,63.1 RU
same,kobs,K24-biotin hepcidin-25,0.0086 s⁻¹
same,koff,K24-biotin hepcidin-25,0.000288 s⁻¹
same,kon,K24-biotin hepcidin-25,52000 M⁻¹ s⁻¹
same,Ka,K18-biotin hepcidin-25 [2],1.14e+09 M⁻¹
same,Kd,K18-biotin hepcidin-25 [2],878 pM
same,Req,K18-biotin hepcidin-25 [2],126 RU
same,kobs,K18-biotin hepcidin-25 [2],0.0102 s⁻¹
same,koff,K18-biotin hepcidin-25 [2],5.59e-05 s⁻¹
same,kon,K18-biotin hepcidin-25 [2],63700 M⁻¹ s⁻¹
same,OD 450 nm,NT-biotin hepcidin-25 [3],≥ 4 OD
same,binding result,[4],binds
same,OD 450 nm,NT-biotin hepcidin-25 [5],≥ 4 OD
same,binding result,mouse hepcidin-1 peptide,no binding (tested: up to 2000 ng/ml)
same,binding result,[6],no binding (tested: up to 2000 ng/ml)
same,Kd,NT-biotin hepcidin-25 [7],~18 pM
same,Kd,K18-biotin hepcidin-25 [8],~7.5 pM
same,OD 450 nm,NT-biotin hepcidin-25 [9],≥ 4 OD
same,OD 450 nm,NT-biotin hepcidin-25 [10],≥ 4 OD
"DTHFPICIFCCGCCHRSKCGMCCKT (Synthetic, biologically active 25 aa peptide; also called hep-25; Hep-25) [human hepcidin-25 (synthetic)]",EC50,[11],≤ 0.005 µg/mL
same,EC50,[12],0.054 µg/mL
B2,binding result,[13],binds
